Laboratory results reported in the supplement of paper PMC6755084.

Test system: F1*sub RNA substrate (template-directed ligation)
Test: fraction ligated after 30 min (ligated reads / total reads); higher = more ligase activity; sequences stand for … in GAGACCGCAACTGAAAAGTTGT…AGTTCTGCACGTAGAAGCAAAAGGC
Details: 42 °C
Experimental: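 Chip-synthesised pool of F1* ligase ribozyme variants (all single and double substitutions, single, double and triple deletions in the catalytic core and GAA bulge, plus designed variants) was transcribed with T7 and reacted as a pool with excess substrate F1*sub for 30 min at 42 C in 50 mM EPPS pH 8.5, 25 mM MgCl2. Ligated and unligated bands were separated by PAGE, barcoded by RT and deep sequenced; fraction ligated = ligated reads / total reads per variant, relative activity = FL / FL of wild type (0.826). Sequences are the DNA template of the ribozyme.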

Sequence	fraction ligated
TATCATTTCGTAAGACACTTTGGATGGGTTG [3d1155]	0.769
TTCACTTGTCGTAAAACTTTGGATGGGTTGA [3d442]	0.623
TACACTGTCGTAGACACTTTGGATGGGTTGA [3d572]	0.322
TATCACTTGCGTAGAACTTTGGATGGGTTGA [3d1629]	0.862
TATCACTTGTGTAGACACTTTGGATGGGTTG [3d1743]	0.863
TATCATTGTCTAAGACACTTTGGATGGGTTA [3d1199]	0.477
TATACTTGTCGTAGACACTTTGATGGGTTGA [3d877]	0.36
TATCACTGTCGTAAGCACTTTGGAGGGTTGA [3d1414]	0.0753
TATCACTTGTCGTAGACACTTTGAGGGTTGA [3d2044]	0.0374
TATCACTTGTCGTGACACTTTGGTGGGTTGA [3d1988]	0.135
TATCATTGTCGTAAGCCTTTGGATGGGTTGA [3d1238]	0.798
TATCACTTGTCGTAAGACTTTGGATGGTTGA [3d2111]	0.133
TATACTTGTCGAAGACACTTTGGAGGGTTGA [3d866]	0.0186
TATCATTGTCGTAAGACACTTTGGATGGGTTG [2d127]	0.784
TATCACTTGTCTAGACACTTTGGATGGGTTGA [2d195]	0.799
TACACTTGTCGTAAGACACTTTGATGGTTGA [3d724]	0.0498
TACACTTGTCTAAGACACTTTGATGGGTTGA [3d640]	0.0986
TATCACTTTCTAAGAACTTTGGATGGGTTGA [3d1483]	0.87
TATCACTTGTCGTAAACATTTGGATGGTTGA [3d2078]	0.15
TATACTTGCGTAGACACTTTGGATGGGTTGA [3d815]	0.435
TATACTTGTCGTAAGACACTTTGAGGGTTGA [3d934]	0.0304
TATCACTTGTGTAAGACACTTTGGATGGGTTA [2d192]	0.823

Sequence	fraction ligated
TTCACTTGTGAAGACACTTTGGATGGGTTGA [3d388]	0.767
TATCTTGTCGTAAGACACTTTGGTGGGTTGA [3d753]	0.563
TTACTTGTCGTAAGACACTTTGGAGGGTTGA [3d294]	0.125
TACACTTGTGAAGACACTTTGGATGGGTTGA [3d618]	0.345
TATCACTTGTGTAAGACACTTTGAGGGTTGA [3d1795]	0.0251
TATCACTGTGTAAGACACTTTGGATGGGTTA [3d1356]	0.823
TATCACTTGCGTAAGACACTTTGTGGGTTGA [3d1689]	0.05
ATCACTTCGTAAGACACTTTGGATGGGTTGA [3d106]	0.761
TATCACTTCGTAAGACACTTTGGAGGGTTGA [3d1323]	0.0267
TATCACTGTCGTAGACACTTTGATGGGTTGA [3d1392]	0.787
ATCACTTGTCGTAAACACTTTGGAGGGTTGA [3d217]	0.0797
TATCACTGTCGTAAGACACTTTATGGGTTGA [3d1447]	0.0197
ATACTTGTCGTAAGACACTTTGGATGGGTTGA [2d3]	0.478
TATACTTGTGTAAGACATTTGGATGGGTTGA [3d835]	0.764
TTCACTTGCGTAAACACTTTGGATGGGTTGA [3d375]	0.356
TATCACTTTCGTAGACACTTTGGATGGGTTA [3d1517]	0.631
TATACTTGTCGTAAGACACTTTGGATGGTTA [3d945]	0.0396
TATCACGTCGTAAACACTTTGGATGGGTTGA [3d1299]	0.787
TATCACTGTCGAAGACACTTTGGATGGGTTA [3d1383]	0.75
TATCACTGTCGTAAGACACTTTGGATGGGTTG [2d146]	0.798
TATCACTTGTCGTAAGACACTTTGGTGGTTGA [2d290]	0.0232
TATCACTTGTCGTAAACCTTTGGTGGGTTGA [3d2069]	0.182

Sequence	fraction ligated
TTCACTTCGTAAGACACTTTGGATGGGTTGA [3d337]	0.344
TACACTTTCGTAAGACACTTGGATGGGTTGA [3d594]	0.0252
TATCACTTGTCGTAAGACATTTGGTGGGTTGA [2d271]	0.0311
TATCACTTGCGTAAGACATTGGATGGGTTGA [3d1674]	0.802
ATCACTTGTCGTAGACCTTTGGATGGGTTGA [3d202]	0.767
TATCACTTGCGTAAGAACTTTGGATGGGTTA [3d1665]	0.604
TTCACTTGTGTAAGACACTTTGGAGGGTTGA [3d398]	0.105
TATCACTTGTCGTAAAACTTTGGATGGGTTA [3d2065]	0.764
TATCACTTGTCGTAGACACTTTGGATGGTTA [3d2055]	0.406
TATCCTTGTCGTAAGACACTTTGGAGGGTTA [3d1115]	0.00568
TATCCTTTCTAAGACACTTTGGATGGGTTGA [3d969]	0.796
TACACTTGTCGAAGACCTTTGGATGGGTTGA [3d650]	0.1
TATCACTTGCTAAGAACTTTGGATGGGTTGA [3d1603]	0.831
TATCACTTGTCGTAAGACTTTGGATGGGTTA [3d2112]	0.792
TTCACTTGTGTAAGACACTTTGGTGGGTTGA [3d397]	0.00981
TATCACTTGTCGTAGACATTTGGATGGGTTA [3d2033]	0.799
ATCACTTGTCGAAGACACTTTGGTGGGTTGA [3d193]	0.0564
TATCACTTTGTAAGACACTTGGATGGGTTGA [3d1472]	0.802
TAACTTGTCGTAAGACACTTTGGATGGTTGA [3d525]	0.309
TATCCTTGCGTAAGACCTTTGGATGGGTTGA [3d991]	0.792
TATATTGTCTAAGACACTTTGGATGGGTTGA [3d762]	0.27
TATCATTGTCGTAAGACACTTTGGATGGGTTA [2d126]	0.67

Sequence	fraction ligated
TATCACTTCGTAAGACACTTTGGATGGGTTG [3d1326]	0.795
TACACTTGTCGTAAGAATTTGGATGGGTTGA [3d692]	0.123
TATCCGTCGTAAGACACTTTGGATGGGTTGA [3d949]	0.798
TATACTGTCGTAAGACACTTTGGATGGTTGA [3d793]	0.132
TATACTGTCGTAAGACACTTTGGATGGGTTGA [2d71]	0.797
TATCACTTGTCGAAGACCTTTGGATGGTTGA [3d1947]	0.299
TTCACTTGTCGTAAGACACTTTGGATGGGTTA [2d45]	0.619
ATCACTTGTGTAAGAACTTTGGATGGGTTGA [3d161]	0.88
ATCACTTGTCGAAGACACTTTGGATGGTTGA [3d195]	0.714
TATACTGCGTAAGACACTTTGGATGGGTTGA [3d779]	0.779
TATCACTTGTCGAAGACACTTTGGATGGTTG [3d1978]	0.432
TATCACTTGTCGAAGAATTTGGATGGGTTGA [3d1935]	0.776
TATACTTGTCGTAAGAACTTTGGAGGGTTGA [3d907]	0.032
TATCACTTGTCGTAAGCACTTTGTGGGTTGA [3d2136]	0.0369
TATCACTTGTCGAAGACTTTGGATGGGTTGA [3d1925]	0.784
ATACTTGTCGTAAGACCTTTGGATGGGTTGA [3d58]	0.412
TACACTTTCGTAAGAACTTTGGATGGGTTGA [3d591]	0.0829
TTCACTGTCGTAAGACACTTTGGATGGGTTG [3d354]	0.726
TATCACTTGTCAGACACTTTGGATGGGTTGA [3d1810]	0.824
TATCACTTGTGTAAGACACTTTGGAGGTTGA [3d1803]	0.0314
TATCACTTGTCGTAGAACTTTGGATGGGTTG [3d2020]	0.854
TTCACTTTCTAAGACACTTTGGATGGGTTGA [3d356]	0.36

Sequence	fraction ligated
TATCTTGTGTAAGACACTTTGGATGGGTTGA [3d742]	0.867
TATCACTTGCGTAAACACTTTGGATGGGTTG [3d1648]	0.795
TATCACTGCGTAAGCACTTTGGATGGGTTGA [3d1332]	0.826
TACACTTGTGTAAGACACTTGGATGGGTTGA [3d625]	0.0347
ATCCTTGTCGTAAGCACTTTGGATGGGTTGA [3d75]	0.715
TATCACTGTCGTAGACATTTGGATGGGTTGA [3d1390]	0.864
TTCACTTGTCTAGACACTTTGGATGGGTTGA [3d403]	0.703
TATCACTTGTCGTAAGACACTTGATGGGTTGA [2d277]	0.662
TATCACTTGCGTAAGACACTTTGGATGGGTTA [2d177]	0.822
TATCACTGTGTAGACACTTTGGATGGGTTGA [3d1345]	0.886
TACCTTGCGTAAGACACTTTGGATGGGTTGA [3d530]	0.392
TATCATGTCGTAAGACACTTTGGATGGGTTA [3d1138]	0.641
TTCACTTGTGTAAGACACTTTGGATGGGTTGA [2d31]	0.781
TATCATTTCGTAAGACACTTTGGTGGGTTGA [3d1151]	0.1
TATCACTTTCGTAACACTTTGGATGGGTTGA [3d1507]	0.796
TATCACTTGTCGTAAACACTTTGGTGGGTTG [3d2097]	0.0291
TACACTTGTCGAAGACACTTTGGTGGGTTGA [3d654]	0.115
TACACTTGCGTAAGACACTTTGGATGGGTTA [3d615]	0.013
TATCACTTGCGTAAGCCTTTGGATGGGTTGA [3d1650]	0.806
TATCATGTCGTAAGACACTTTGGATGGTTGA [3d1137]	0.268
